Reference: publication PMC3553976

Assays:
[1] = molecular target: T1, U2AF65 RRM123;SF1 1-260 (Homo sapiens;Homo sapiens, UniProt P26368;Q15637 147-475;1-260, |); test: SAXS
[2] = molecular target: U2AF65 RRM123;SF1 2-320 delta-linker (Homo sapiens;Homo sapiens?, UniProt P26368;Q15637 147-475;2-320, |del75-90); test: EMSA
[3] = molecular target: T1, U2AF65 RRM123;SF1 1-260; test: EMSA
[4] = molecular target: U2AF65 RRM123;SF1 2-320 (Homo sapiens;Homo sapiens?, UniProt P26368;Q15637 147-475;2-320, |); test: EMSA
[5] = molecular target: U2AF65 RRM123 (Homo sapiens, UniProt P26368 147-475); test: EMSA
[6] = molecular target: U2AF65 RRM123;SF1 2-320 delta-alpha1 (Homo sapiens;Homo sapiens?, UniProt P26368;Q15637 147-475;2-320, |del35-68); test: EMSA

Measured: binding result

Sequence of U2AF65 RRM123 (P26368 147-475, one chain of several): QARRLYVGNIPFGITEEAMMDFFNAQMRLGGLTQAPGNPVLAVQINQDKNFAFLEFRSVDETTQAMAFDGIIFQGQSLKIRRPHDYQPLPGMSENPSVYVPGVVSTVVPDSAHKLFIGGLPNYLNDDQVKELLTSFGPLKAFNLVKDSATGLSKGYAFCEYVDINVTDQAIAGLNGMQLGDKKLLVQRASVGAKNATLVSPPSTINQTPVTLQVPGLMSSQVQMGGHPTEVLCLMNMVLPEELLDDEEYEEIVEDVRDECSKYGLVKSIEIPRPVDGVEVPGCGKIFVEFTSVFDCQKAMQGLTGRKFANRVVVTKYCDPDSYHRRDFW

B1: 20-mer BPS-Py tract RNA (ssRNA)
RNA: UAUACUAACAAUUUUUUUUU
binds: [1]

B2: 3'-splice site RNA (AdML intron 1, consensus BPS) (ssRNA)
RNA: GGUCAUACUAACCCUGUCCCUUUUUUUUCCACAGC
not listed: [1]
binds: all other assays above
